Measured values as given in paper PMC10287905, “Proper RPA acetylation promotes accurate DNA replication and repair” (Nucleic Acids Research, 2023).

Tests used:
Assay in all cases: MST; RED-tris-NTA labelled 6xHis-Rtt105 at constant 100 nM, serial dilutions of RPA complex from 200 to 0.0058 nM; 1x PBS with 0.05% Tween 20; 50 min at room temperature; Monolith NT.115
Settings in all cases: both partners purified
[1] = biological target: T1, 4KR RPA complex (yeast, UniProt P22336 1-621; P26754 1-273; P26755 1-122, K259R | K427R | K463R | K494R)
T1 construct: Rfa1, largest subunit of yeast RPA, four lysines mutated to arginine; Rfa2, subunit of yeast RPA; Rfa3, subunit of yeast RPA; also called 4KR mutant RPA; source: purified from yeast cells; copies: + +
T1 sequence (P22336 whole entry K259R/K427R/K463R/K494R, chain 1 of 3): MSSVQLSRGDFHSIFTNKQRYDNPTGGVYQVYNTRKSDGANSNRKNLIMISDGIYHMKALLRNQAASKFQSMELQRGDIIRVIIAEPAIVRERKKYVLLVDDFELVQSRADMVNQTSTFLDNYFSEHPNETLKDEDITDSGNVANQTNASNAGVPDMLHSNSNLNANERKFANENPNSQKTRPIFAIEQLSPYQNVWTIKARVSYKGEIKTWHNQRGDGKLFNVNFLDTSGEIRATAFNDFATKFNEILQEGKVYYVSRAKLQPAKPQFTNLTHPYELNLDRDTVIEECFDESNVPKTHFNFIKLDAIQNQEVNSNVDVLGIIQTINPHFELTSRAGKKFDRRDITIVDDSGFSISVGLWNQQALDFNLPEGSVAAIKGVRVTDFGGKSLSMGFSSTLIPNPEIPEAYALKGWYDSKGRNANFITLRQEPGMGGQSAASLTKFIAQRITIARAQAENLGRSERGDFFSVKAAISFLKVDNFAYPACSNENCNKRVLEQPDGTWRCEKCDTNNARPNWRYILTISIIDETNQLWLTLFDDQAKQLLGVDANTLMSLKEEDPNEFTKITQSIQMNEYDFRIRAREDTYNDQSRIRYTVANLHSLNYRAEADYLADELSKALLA
T1 sequence (P26754 whole entry, chain 2 of 3): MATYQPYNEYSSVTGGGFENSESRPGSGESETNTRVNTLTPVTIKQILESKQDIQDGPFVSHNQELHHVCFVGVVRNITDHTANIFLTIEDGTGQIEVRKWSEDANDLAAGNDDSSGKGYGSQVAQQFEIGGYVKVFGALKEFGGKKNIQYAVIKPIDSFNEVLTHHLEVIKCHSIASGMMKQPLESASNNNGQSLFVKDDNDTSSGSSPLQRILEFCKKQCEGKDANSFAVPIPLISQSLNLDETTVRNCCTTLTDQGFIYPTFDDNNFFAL
T1 sequence (P26755 whole entry, chain 3 of 3): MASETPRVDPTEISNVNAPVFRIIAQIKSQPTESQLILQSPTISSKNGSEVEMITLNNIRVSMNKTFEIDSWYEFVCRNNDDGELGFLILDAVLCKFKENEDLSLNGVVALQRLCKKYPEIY

[2] = biological target: T2, WT RPA complex (yeast, UniProt P22336 1-621; P26754 1-273; P26755 1-122)
T2 construct: Rfa1, largest subunit of yeast RPA; Rfa2, subunit of yeast RPA; Rfa3, subunit of yeast RPA; the MST methods say only 'RPA complex'; source: purified from yeast cells; copies: + +
T2 sequence (P22336 whole entry, chain 1 of 3): as the sequence (P22336 whole entry K259R/K427R/K463R/K494R, chain 1 of 3) above, with R259K, R427K, R463K, R494K counted along it
T2 sequence (P26754 whole entry, chain 2 of 3): as the sequence (P26754 whole entry, chain 2 of 3) above
T2 sequence (P26755 whole entry, chain 3 of 3): as the sequence (P26755 whole entry, chain 3 of 3) above

[3] = biological target: T3, 4KQ RPA complex (yeast, UniProt P22336 1-621; P26754 1-273; P26755 1-122, K259Q | K427Q | K463Q | K494Q)
T3 construct: Rfa1, largest subunit of yeast RPA, four lysines mutated to glutamine; Rfa2, subunit of yeast RPA; Rfa3, subunit of yeast RPA; also called 4KQ mutant RPA; source: purified from yeast cells; copies: + +
T3 sequence (P22336 whole entry K259Q/K427Q/K463Q/K494Q, chain 1 of 3): as the sequence (P22336 whole entry K259R/K427R/K463R/K494R, chain 1 of 3) above, with R259Q, R427Q, R463Q, R494Q counted along it
T3 sequence (P26754 whole entry, chain 2 of 3): as the sequence (P26754 whole entry, chain 2 of 3) above
T3 sequence (P26755 whole entry, chain 3 of 3): as the sequence (P26755 whole entry, chain 3 of 3) above

- Kd [1]: ~1.17 nM
- Kd [2]: ~1.06 nM
- Kd [3]: ~0.51 nM
B1: 6xHis-Rtt105 (natural protein, yeast, UniProt P40063 1-208, looked up)
chain: MYSNHNLNSDDCCFDWNEEKAAELQRTGVSFDRSLTPQSLRTSTRRLSEENKQQSGTMHIDTSPSVVSDIISSRRDRSQDFFGPHSSSPIAPSERQRADQRSRLESMRLTRRRDKMTKVRGGLEKMEEMIMQGEHLREMQRLKQEAQKNALPSDMAEYMEWQNNEDLEDDELLAFIEKQETYKNELEHFLNNANKNVYENNSYPNSHT
modifications: labelled with a RED-tris-NTA protein labelling kit
notes: Rtt105, yeast RPA chaperone protein
